# T1: APBA3_1, O96018
# T1 sequence (O96018 389-490, limits assumed, looked up): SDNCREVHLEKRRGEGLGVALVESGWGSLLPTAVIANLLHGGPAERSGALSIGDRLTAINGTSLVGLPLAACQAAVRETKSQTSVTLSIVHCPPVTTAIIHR
# T2: ARHGEF11, O15085
# T2 sequence (O15085 42-136, limits assumed, looked up): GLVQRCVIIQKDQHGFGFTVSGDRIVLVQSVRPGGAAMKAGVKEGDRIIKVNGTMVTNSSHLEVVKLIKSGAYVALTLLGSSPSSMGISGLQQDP
# T3: DFNB31_1, Q9P202
# T3 sequence (Q9P202 135-233, limits assumed, looked up): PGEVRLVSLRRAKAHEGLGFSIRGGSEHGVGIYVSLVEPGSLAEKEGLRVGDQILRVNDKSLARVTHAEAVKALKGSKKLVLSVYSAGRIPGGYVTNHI
# T4: DLG3_1, Q92796
# T4 sequence (Q92796 125-227, limits assumed, looked up): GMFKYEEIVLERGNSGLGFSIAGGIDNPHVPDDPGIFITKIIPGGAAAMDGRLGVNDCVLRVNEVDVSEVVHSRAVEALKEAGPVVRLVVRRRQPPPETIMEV
# T5: GRIP1_4, Q9Y3R0
# T5 sequence (Q9Y3R0 467-571, limits assumed, looked up): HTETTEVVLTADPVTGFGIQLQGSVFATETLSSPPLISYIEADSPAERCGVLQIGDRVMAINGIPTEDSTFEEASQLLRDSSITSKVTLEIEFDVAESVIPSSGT
# T6: HTRA3, P83110
# T6 sequence (P83110 354-453, limits assumed, looked up): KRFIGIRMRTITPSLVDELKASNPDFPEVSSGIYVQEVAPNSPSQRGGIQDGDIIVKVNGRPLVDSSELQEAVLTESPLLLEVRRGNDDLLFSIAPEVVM
# T7: LNX2_3, Q8N448
# T7 sequence (Q8N448 463-564, limits assumed, looked up): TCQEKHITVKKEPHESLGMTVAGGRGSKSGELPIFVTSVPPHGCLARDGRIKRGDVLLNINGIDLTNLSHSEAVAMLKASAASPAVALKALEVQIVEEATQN
# T8: LRRC7, Q96NW7
# T8 sequence (Q96NW7 1440-1537, limits assumed, looked up): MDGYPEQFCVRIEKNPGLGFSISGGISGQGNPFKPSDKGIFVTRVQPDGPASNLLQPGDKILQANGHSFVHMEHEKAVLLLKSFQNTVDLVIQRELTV
# T9: PDZD2_2, O15018
# T9 sequence (O15018 329-429, limits assumed, looked up): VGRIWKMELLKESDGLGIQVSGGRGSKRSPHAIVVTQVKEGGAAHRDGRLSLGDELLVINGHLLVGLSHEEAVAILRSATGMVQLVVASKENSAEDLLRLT
# T10: SYNJ2BP, P57105
# T10 sequence (P57105 8-110, limits assumed, looked up): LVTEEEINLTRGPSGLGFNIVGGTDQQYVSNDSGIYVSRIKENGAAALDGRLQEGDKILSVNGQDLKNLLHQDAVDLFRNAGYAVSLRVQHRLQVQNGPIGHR
# Legend:
# Experiment in all cases: holdup assay
# Parameters in all cases: key: below the threshold = too weak to quantify, mostly under pKd 3.1 to 4
# APBA3_1, O96018 = target: T1, APBA3_1, O96018
# ARHGEF11, O15085 = target: T2, ARHGEF11, O15085
# DFNB31_1, Q9P202 = target: T3, DFNB31_1, Q9P202
# DLG3_1, Q92796 = target: T4, DLG3_1, Q92796
# DLG4_2, P78352 = target: DLG4_2, P78352
# FRMPD3, Q5JV73 = target: FRMPD3, Q5JV73
# GRID2IP_2, A4D2P6 = target: GRID2IP_2, A4D2P6
# GRIP1_4, Q9Y3R0 = target: T5, GRIP1_4, Q9Y3R0
# GRIP2_4, Q9C0E4 = target: GRIP2_4, Q9C0E4
# GRIP2_6, Q9C0E4 = target: GRIP2_6, Q9C0E4
# HTRA3, P83110 = target: T6, HTRA3, P83110
# IL16_1, Q14005 = target: IL16_1, Q14005
# IL16_4, Q14005 = target: IL16_4, Q14005
# LNX1_2, Q8TBB1 = target: LNX1_2, Q8TBB1
# LNX2_3, Q8N448 = target: T7, LNX2_3, Q8N448
# LRRC7, Q96NW7 = target: T8, LRRC7, Q96NW7
# MAGI1_1, Q96QZ7 = target: MAGI1_1, Q96QZ7
# MAGI3_2, Q5TCQ9 = target: MAGI3_2, Q5TCQ9
# MAST2, Q6P0Q8 = target: MAST2, Q6P0Q8
# NHERF4_4, Q86UT5 = target: NHERF4_4, Q86UT5
# PARD3_3, Q8TEW0 = target: PARD3_3, Q8TEW0
# PDZD2_2, O15018 = target: T9, PDZD2_2, O15018
# PTPN3, P26045 = target: PTPN3, P26045
# SCRIB_1, Q14160 = target: SCRIB_1, Q14160
# SNX27, Q96L92 = target: SNX27, Q96L92
# SYNJ2BP, P57105 = target: T10, SYNJ2BP, P57105
# TJP2_1, Q9UDY2 = target: TJP2_1, Q9UDY2
# [1] = plain residues with an end cap or a label only (N-terminal biotin on a linker: ado-ado)
# [2] = plain residues with an end cap or a label only (N-terminal biotin on a linker: ahx)
# Chain of SCRIB_1, Q14160 (Q14160 718-814): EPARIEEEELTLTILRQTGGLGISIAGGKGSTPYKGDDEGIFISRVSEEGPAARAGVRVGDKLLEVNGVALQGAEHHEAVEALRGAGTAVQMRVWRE
# Chain of PARD3_3, Q8TEW0 (Q8TEW0 582-685): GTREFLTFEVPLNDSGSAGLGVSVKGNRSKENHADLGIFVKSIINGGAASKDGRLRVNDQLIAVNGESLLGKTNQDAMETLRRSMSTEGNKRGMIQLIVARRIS
# Chain of IL16_1, Q14005 (Q14005 210-306): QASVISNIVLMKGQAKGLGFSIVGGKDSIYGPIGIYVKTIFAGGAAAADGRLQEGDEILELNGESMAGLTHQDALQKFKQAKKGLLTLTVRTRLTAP
# Chain of FRMPD3, Q5JV73 (Q5JV73 12-100): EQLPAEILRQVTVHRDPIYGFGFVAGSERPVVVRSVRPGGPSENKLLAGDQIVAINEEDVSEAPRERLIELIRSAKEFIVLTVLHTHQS
# Chain of MAGI1_1, Q96QZ7 (Q96QZ7 1-106): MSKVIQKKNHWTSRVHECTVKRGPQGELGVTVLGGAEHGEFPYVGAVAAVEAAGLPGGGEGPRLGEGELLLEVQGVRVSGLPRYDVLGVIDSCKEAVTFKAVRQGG
# Chain of TJP2_1, Q9UDY2 (Q9UDY2 24-128): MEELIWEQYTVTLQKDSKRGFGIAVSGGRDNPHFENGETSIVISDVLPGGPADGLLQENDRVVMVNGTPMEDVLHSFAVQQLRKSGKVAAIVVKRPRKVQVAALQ
# Chain of GRID2IP_2, A4D2P6 (A4D2P6 272-370): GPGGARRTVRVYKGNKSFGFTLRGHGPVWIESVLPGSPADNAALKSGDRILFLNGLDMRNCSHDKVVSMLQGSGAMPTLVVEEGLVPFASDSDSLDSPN
# Chain of LNX1_2, Q8TBB1 (Q8TBB1 371-470): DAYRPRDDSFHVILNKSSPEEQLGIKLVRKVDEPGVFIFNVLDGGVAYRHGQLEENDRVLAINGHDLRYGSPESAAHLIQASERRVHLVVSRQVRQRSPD
# Chain of DLG4_2, P78352 (P78352 155-259): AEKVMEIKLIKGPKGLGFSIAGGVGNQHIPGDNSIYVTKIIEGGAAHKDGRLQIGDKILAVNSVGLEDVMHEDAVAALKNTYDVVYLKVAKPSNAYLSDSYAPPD
# Chain of GRIP2_6, Q9C0E4 (Q9C0E4 648-740): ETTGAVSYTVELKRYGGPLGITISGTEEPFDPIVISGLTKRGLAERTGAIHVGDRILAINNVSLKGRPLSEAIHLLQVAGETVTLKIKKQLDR
# Chain of MAST2, Q6P0Q8 (Q6P0Q8 1099-1202): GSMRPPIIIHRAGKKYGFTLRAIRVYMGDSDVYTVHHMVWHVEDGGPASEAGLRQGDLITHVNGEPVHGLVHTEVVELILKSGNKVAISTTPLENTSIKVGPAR
# Chain of GRIP2_4, Q9C0E4 (Q9C0E4 446-548): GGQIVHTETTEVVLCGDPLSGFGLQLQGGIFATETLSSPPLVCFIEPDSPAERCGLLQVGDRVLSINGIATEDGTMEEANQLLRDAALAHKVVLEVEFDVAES
# Chain of NHERF4_4, Q86UT5 (Q86UT5 464-550): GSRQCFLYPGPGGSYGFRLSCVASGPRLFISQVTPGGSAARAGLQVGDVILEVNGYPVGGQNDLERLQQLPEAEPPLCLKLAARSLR
# Chain of MAGI3_2, Q5TCQ9 (Q5TCQ9 398-503): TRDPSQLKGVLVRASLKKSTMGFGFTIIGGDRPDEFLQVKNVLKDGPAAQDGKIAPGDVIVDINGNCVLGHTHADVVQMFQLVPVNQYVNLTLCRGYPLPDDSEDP
# Chain of PTPN3, P26045 (P26045 505-587): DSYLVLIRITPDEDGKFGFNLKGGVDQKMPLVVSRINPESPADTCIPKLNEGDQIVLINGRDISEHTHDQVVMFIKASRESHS
# Chain of IL16_4, Q14005 (Q14005 1229-1329): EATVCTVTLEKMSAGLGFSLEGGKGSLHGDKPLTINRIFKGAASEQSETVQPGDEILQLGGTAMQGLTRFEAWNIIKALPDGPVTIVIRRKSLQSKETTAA
binder,measurement,setting,value
"PLSPEQPTKL [TRIM50, Q86XT4]",pKd,"APBA3_1, O96018; [1]",below the threshold
same,pKd,"ARHGEF11, O15085; [1]",below the threshold
same,pKd,"DFNB31_1, Q9P202; [1]",below the threshold
same,pKd,"DLG3_1, Q92796; [1]",below the threshold
same,pKd,"DLG4_2, P78352; [1]",below the threshold
same,pKd,"FRMPD3, Q5JV73; [1]",below the threshold
same,pKd,"GRID2IP_2, A4D2P6; [1]",below the threshold
same,pKd,"GRIP1_4, Q9Y3R0; [1]",below the threshold
same,pKd,"GRIP2_4, Q9C0E4; [1]",below the threshold
same,pKd,"GRIP2_6, Q9C0E4; [1]",below the threshold
same,pKd,"HTRA3, P83110; [1]",below the threshold
same,pKd,"IL16_1, Q14005; [1]",below the threshold
same,pKd,"IL16_4, Q14005; [1]",below the threshold
same,pKd,"LNX1_2, Q8TBB1; [1]",below the threshold
same,pKd,"LNX2_3, Q8N448; [1]",below the threshold
same,pKd,"LRRC7, Q96NW7; [1]",below the threshold
same,pKd,"MAGI1_1, Q96QZ7; [1]",below the threshold
same,pKd,"MAGI3_2, Q5TCQ9; [1]",below the threshold
same,pKd,"MAST2, Q6P0Q8; [1]",4.73
same,pKd,"NHERF4_4, Q86UT5; [1]",below the threshold
same,pKd,"PARD3_3, Q8TEW0; [1]",below the threshold
same,pKd,"PDZD2_2, O15018; [1]",below the threshold
same,pKd,"PTPN3, P26045; [1]",below the threshold
same,pKd,"SCRIB_1, Q14160; [1]",below the threshold
same,pKd,"SNX27, Q96L92; [1]",below the threshold
same,pKd,"SYNJ2BP, P57105; [1]",below the threshold
same,pKd,"TJP2_1, Q9UDY2; [1]",below the threshold
"NRKREIFSNF [NHERF2, Q15599]",pKd,"APBA3_1, O96018; [2]",below the threshold
same,pKd,"ARHGEF11, O15085; [2]",below the threshold
same,pKd,"DFNB31_1, Q9P202; [2]",below the threshold
same,pKd,"DLG3_1, Q92796; [2]",below the threshold
same,pKd,"DLG4_2, P78352; [2]",below the threshold
same,pKd,"FRMPD3, Q5JV73; [2]",below the threshold
same,pKd,"GRID2IP_2, A4D2P6; [2]",below the threshold
same,pKd,"GRIP1_4, Q9Y3R0; [2]",below the threshold
same,pKd,"GRIP2_4, Q9C0E4; [2]",below the threshold
same,pKd,"GRIP2_6, Q9C0E4; [2]",below the threshold
same,pKd,"HTRA3, P83110; [2]",below the threshold
same,pKd,"IL16_1, Q14005; [2]",below the threshold
same,pKd,"IL16_4, Q14005; [2]",below the threshold
same,pKd,"LNX1_2, Q8TBB1; [2]",below the threshold
same,pKd,"LNX2_3, Q8N448; [2]",below the threshold
same,pKd,"LRRC7, Q96NW7; [2]",below the threshold
same,pKd,"MAGI1_1, Q96QZ7; [2]",below the threshold
same,pKd,"MAGI3_2, Q5TCQ9; [2]",below the threshold
same,pKd,"MAST2, Q6P0Q8; [2]",3.89
same,pKd,"NHERF4_4, Q86UT5; [2]",below the threshold
same,pKd,"PARD3_3, Q8TEW0; [2]",below the threshold
same,pKd,"PDZD2_2, O15018; [2]",below the threshold
same,pKd,"PTPN3, P26045; [2]",below the threshold
same,pKd,"SCRIB_1, Q14160; [2]",below the threshold
same,pKd,"SNX27, Q96L92; [2]",below the threshold
same,pKd,"SYNJ2BP, P57105; [2]",below the threshold
same,pKd,"TJP2_1, Q9UDY2; [2]",below the threshold
"RRRKRKRTYL [HPV49-L2, P36762]",pKd,"APBA3_1, O96018; [2]",below the threshold
same,pKd,"ARHGEF11, O15085; [2]",4.01
same,pKd,"DFNB31_1, Q9P202; [2]",3.58
same,pKd,"DLG3_1, Q92796; [2]",below the threshold
same,pKd,"DLG4_2, P78352; [2]",below the threshold
same,pKd,"FRMPD3, Q5JV73; [2]",3.5
same,pKd,"GRID2IP_2, A4D2P6; [2]",5.11
same,pKd,"GRIP1_4, Q9Y3R0; [2]",4.04
same,pKd,"GRIP2_4, Q9C0E4; [2]",4.37
same,pKd,"GRIP2_6, Q9C0E4; [2]",below the threshold
same,pKd,"HTRA3, P83110; [2]",below the threshold
same,pKd,"IL16_1, Q14005; [2]",below the threshold
same,pKd,"IL16_4, Q14005; [2]",below the threshold
same,pKd,"LNX1_2, Q8TBB1; [2]",below the threshold
same,pKd,"LNX2_3, Q8N448; [2]",below the threshold
same,pKd,"LRRC7, Q96NW7; [2]",below the threshold
same,pKd,"MAGI1_1, Q96QZ7; [2]",below the threshold
same,pKd,"MAGI3_2, Q5TCQ9; [2]",5.4
same,pKd,"MAST2, Q6P0Q8; [2]",4.22
same,pKd,"NHERF4_4, Q86UT5; [2]",3.53
same,pKd,"PARD3_3, Q8TEW0; [2]",below the threshold
same,pKd,"PDZD2_2, O15018; [2]",3.8
same,pKd,"PTPN3, P26045; [2]",3.72
same,pKd,"SCRIB_1, Q14160; [2]",3.67
same,pKd,"SNX27, Q96L92; [2]",below the threshold
same,pKd,"SYNJ2BP, P57105; [2]",below the threshold
same,pKd,"TJP2_1, Q9UDY2; [2]",5.68
"HNAFLSVTTV [PDZRN4, Q6ZMN7]",pKd,"APBA3_1, O96018; [2]",below the threshold
same,pKd,"ARHGEF11, O15085; [2]",3.59
same,pKd,"DFNB31_1, Q9P202; [2]",below the threshold
same,pKd,"DLG3_1, Q92796; [2]",3.56
same,pKd,"DLG4_2, P78352; [2]",3.51
same,pKd,"FRMPD3, Q5JV73; [2]",below the threshold
same,pKd,"GRID2IP_2, A4D2P6; [2]",below the threshold
same,pKd,"GRIP1_4, Q9Y3R0; [2]",below the threshold
same,pKd,"GRIP2_4, Q9C0E4; [2]",below the threshold
same,pKd,"GRIP2_6, Q9C0E4; [2]",3.56
same,pKd,"HTRA3, P83110; [2]",below the threshold
same,pKd,"IL16_1, Q14005; [2]",below the threshold
same,pKd,"IL16_4, Q14005; [2]",3.58
same,pKd,"LNX1_2, Q8TBB1; [2]",3.65
same,pKd,"LNX2_3, Q8N448; [2]",below the threshold
same,pKd,"LRRC7, Q96NW7; [2]",3.5
same,pKd,"MAGI1_1, Q96QZ7; [2]",below the threshold
same,pKd,"MAGI3_2, Q5TCQ9; [2]",3.58
same,pKd,"MAST2, Q6P0Q8; [2]",below the threshold
same,pKd,"NHERF4_4, Q86UT5; [2]",below the threshold
same,pKd,"PARD3_3, Q8TEW0; [2]",3.81
same,pKd,"PDZD2_2, O15018; [2]",3.49
same,pKd,"PTPN3, P26045; [2]",below the threshold
same,pKd,"SCRIB_1, Q14160; [2]",below the threshold
same,pKd,"SNX27, Q96L92; [2]",3.65
same,pKd,"SYNJ2BP, P57105; [2]",below the threshold
same,pKd,"TJP2_1, Q9UDY2; [2]",below the threshold
